The subject of data set [1] is MS2 coat protein. The data set can be described thus: apparent KD of MS2 coat protein, switch ON state; designed switch direction (-1 OFF switch, 1 ON switch): -1; higher = weaker reporter binding. The settings on record: FMN input: 0 or 200 uM; Eterna round: R93 (includes R88 designs). The essentials: (§1)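 Apparent KD is reported per design as the median of normalised binding-curve fits across its clusters. The RNA switches were made by on-chip transcription from Illumina sequencing clusters. SNAP-549-labelled MS2 coat protein was then added in twofold steps (0.7 or 1.5 nM to 3 µM; 0.8–1.5 h to 10–20 min per step) in 100 mM Tris-HCl pH 7.5, 80 mM KCl, 4 mM MgCl2, without or with constant ligand.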

In data set [2] the test system is MS2 coat protein. The data set can be described thus: apparent KD of MS2 coat protein, switch OFF state (with FMN for OFF switches, without FMN for ON switches); designed switch direction (-1 OFF switch, 1 ON switch): -1; higher = weaker reporter binding. The settings on record: FMN input: 0 or 200 uM; Eterna round: R93 (includes R88 designs). The procedure, abridged: as §1

For data set [3], the system named is MS2 coat protein. The data set can be described thus: apparent KD of MS2 coat protein; designed switch direction (-1 OFF switch, 1 ON switch): 1; higher = weaker reporter binding. The procedure, abridged:
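An oligonucleotide input, 200 uM small-molecule ligand, or no input was present during titration of SNAP-549-labelled MS2 coat protein, which was doubled from 0.7 or 1.5 nM to 3 µM. Designed RNA switches had been transcribed on Illumina chips by stalled E. coli RNA polymerase. Apparent KD per design is the median over clusters of curves fitted to normalised cluster fluorescence.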

[4] abbreviates: input ligand: microRNA oligo, concentration not stated.
Where [5] appears, read: Eterna round: R95, input ligand: FMN 200 uM.
[6] abbreviates: Eterna round: R95, input ligand: microRNA oligo, concentration not stated.
Where [7] appears, read: Eterna round: R95, input ligand: none.

The text below walks through data of the supplement of paper PMC9170038.

Turning to “AAAAAACAUGAGGAUCACCCAUGUAAGGAUAUACCUAAAAAAAAAAAAAAAAAAAAUGGUAGAAGGUACAAAAA [excalibur12]”, the “apparent KD of MS2 coat protein” value in the data set on MS2 coat protein [1] was found to be 28.1 nM; with MS2 coat protein [2] it was 67.5 nM.
Regarding “AAAAAACAUGAGGAUCACCCAUGUAAGGAUAUGCGAAAAUAAAAUAAAAUAAAAUAAAGCAGAAGGUACAAAAG [Mat - Exclusion 1 - Eli mod - D3]”, the “apparent KD of MS2 coat protein” value with MS2 coat protein [1] was found to be 28.8 nM; in the data set on MS2 coat protein [2], 49.5 nM.
The matching figures for “AAAAAACAUGAGGAUCACCCAUGUAAGGAUAUGCUAGGAAAAAGAAAAAUAAAAACUAGCAGAAGGUACAUGAA [JL wbt mod 11]”: 33.2 nM and 113 nM.
Take “AAAAAACAUGAGGAUCACCCAUGUAAGGAUAUGCUAGGAAAAAGAAAAAUAAAAACUAGCAGAAGGUACAUUAA [JL wbt mod 9]”: the “apparent KD of MS2 coat protein” value with MS2 coat protein [1] was 26.6 nM; in the data set with MS2 coat protein [2] it was 38.3 nM.
The matching figures for “AAAAAACAUGAGGAUCACCCAUGUCAGGAUAUACAAAAGAAAAGAAAAAGAAAAGAAAGUAGAAGGGACAAAAA [mod1]”: 23 nM and 24.6 nM.
For “AAAAAACAUGAGGAUCACCCAUGUCAGGAUAUCGUCAUAGAUGCAAAAGCAUCUAUGACGAGAAGGGACAUGCC [JL EX1 03]”, the “apparent KD of MS2 coat protein” value with MS2 coat protein [1] amounted to 103 nM; with MS2 coat protein [2], 64.6 nM.
As to “UGUUGUAUUACAGGAUAUCUAUUAUUUUUAUUUAGAGAAGGGUAUUCACAUGAGGAUCACCCAUGUAUAUACGAGGAAGAUGUG [JMF's solution 5] (Eterna round: R96, puzzle: Same State NG 1)”, the “apparent KD of MS2 coat protein” value in the data set with MS2 coat protein [3] (setting [4]) worked out at 60.4 nM.
“UGUUGUAUUACAGGAUAUCUAUUGUUUUUACUUAGAGAAGGGUAUUCACAUGAGGAUCACCCAUGUAUAUACGAGGAAGUUGUG [JMF's solution 83] (Eterna round: R96, puzzle: Same State NG 1)”: the “apparent KD of MS2 coat protein” value in the data set on MS2 coat protein [3] (input ligand: FMN 200 uM) was determined as 39.2 nM; in the data set with MS2 coat protein [3] (setting [4]) it was 31 nM; in the data set on MS2 coat protein [3] (input ligand: none), 41.8 nM.
On the same counts, the results for “UGUUGUUAACUAGGAUAUGGUCACAUGAGGAUCACCCAUGUAAUGUCGAUGCUAUGUGGAUUUGAUCAGAAGGAGUGGUUAACA [SameState NG2 #99] (Eterna round: R96, puzzle: Same State NG 2)” are 66.4 nM, 58.8 nM and 58.4 nM.
The matching figures for “UUAAUAAAUCAAGGAUAUCACGUCGAAUAGACGUGAGAAGGUGAUCAUAACAUGAGGAUCACCCAUGUAUUACAUGAAUAUUAA [SSNG1/1-B1] (Eterna round: R96, puzzle: Same State NG 1)”: 522 nM, 40 nM and 512 nM.
The matching figures for “UUAAUAAAUCAAGGAUAUCACGUCGAUUAGACGUGAGAAGGUGAUCAUAACAUGAGGAUCACCCAUGUAUUACAUGAAUAUUAA [SSNG1/1-B2] (Eterna round: R96, puzzle: Same State NG 1)”: 1810 nM, 721 nM and 659 nM.
As to “UUAAUAAUGUAAGGAUAUACAUGAGGAUUUCUCGUAGAAGGUACAUUACAUGAGGAUCACCCAUGUGGGUGUCAGAAGACGCCA [Mat - Same State NG 1 - JL mod - D13] (Eterna round: R96, puzzle: Same State NG 1)”, the entries for the “apparent KD of MS2 coat protein” value with MS2 coat protein [3] (input ligand: FMN 200 uM), with MS2 coat protein [3] (setting [4]) and in the data set on MS2 coat protein [3] (input ligand: none) were 143 nM, 953 nM and 275 nM, respectively.
On the same counts, the results for “UUAAUGAUGUUAGGAUAUACAUGAGGAAUCCUCGUAGAAGGAACAUGACAUGAGGAUCACCCAUGUAGCGCUCCGUAGAGCGCA [JL SSNG1 1.18] (Eterna round: R96, puzzle: Same State NG 1)” are 2460 nM, 18.5 nM and 60.3 nM.
On the same counts, the results for “UUACUCAUGUAAGGAUAUGCAGCCGUUUCGGCUGCAGAAGGUACUAUAAUACAUGAGGAUCACCCAUGUCUAUAAAAUAAAGAC [Mat - Same State NG 1 - JL mod - D81] (Eterna round: R96, puzzle: Same State NG 1)” are 69.5 nM, 24 nM and 32.5 nM.
As for “UUCCCAGCGGGAGGAUAUGGUGCCUUAUUGGUGCUAGAAGGUCCAACAUGAGGAUCACCCAUGUGGGAGUGGUCUAAUGACCUC [SS NG10LRO07] (Eterna round: R96, puzzle: Same State NG 1)”, the “apparent KD of MS2 coat protein” value in the data set on MS2 coat protein [3] (setting [4]) came to 169 nM.
“UUCUCACAUGAGGAUCACCCAUGUGAGCCUCUGUGAGGAUAUCCGACAUAAUUAAUUGAAGGAGAAGGUACACGAG [Leer] (puzzle: Same State 1)”: the “apparent KD of MS2 coat protein” value was 130 nM in the data set on MS2 coat protein [3] (setting [5]), 4.78 nM with MS2 coat protein [3] (setting [6]) and 24.9 nM in the data set on MS2 coat protein [3] (setting [7]).
For the sequence “UUGAAGAAUUAAGGAUAUUGAGUACAUAUGUUUAACAUGAGGAUCACCCAUGUGGGUUGCGGUAUCGAGAAGGUAAAUUACAAG [JL SSNG2 1.44] (Eterna round: R96, puzzle: Same State NG 2)”, the figures for the “apparent KD of MS2 coat protein” value in the data set on MS2 coat protein [3] (input ligand: FMN 200 uM), in the data set with MS2 coat protein [3] (setting [4]) and in the data set with MS2 coat protein [3] (input ligand: none) were 105 nM, 91.8 nM and 138 nM, respectively.
Regarding “UUGAGGAAUUAAGGAUAUUGAGUACAUAUGUUUAACAUGAGGAUCACCCAUGUGGGUUGCGGUAUCGAGAAGGUAAAUUACUAC [salish99_SSNG2_r04_801] (Eterna round: R96, puzzle: Same State NG 2)”, the “apparent KD of MS2 coat protein” value was 113 nM in the data set with MS2 coat protein [3] (input ligand: FMN 200 uM), 73.2 nM with MS2 coat protein [3] (setting [4]) and 120 nM in the data set with MS2 coat protein [3] (input ligand: none).
On the same counts, the results for “UUGCUCGUGUGAGGAUAUGCCGCCGUUUCGGCUGCAGAAGGUACUCUAAUACAUGAGGAUCACCCAUGUCUCUGUUGUUUCGUG [salish99_SSNG1_r04_935] (Eterna round: R96, puzzle: Same State NG 1)” are 86.7 nM, 52.4 nM and 80.9 nM.
For “UUGCUCGUGUGAGGAUAUGCCGCCGUUUCGGCUGCAGAAGGUACUUUAAUACAUGAGGAUCACCCAUGUCUCUGUUGUUUCGUG [salish99_SSNG1_r04_933] (Eterna round: R96, puzzle: Same State NG 1)”, the “apparent KD of MS2 coat protein” value with MS2 coat protein [3] (setting [4]) amounted to 23.1 nM.
For the sequence “UUGGUUCUCGUAGGAUAUGUAGGAUAUUCCUACAUGAGGAUCACCCAUGUUCGCAUGGAAGAAGGACAGAAGGACGAUCACCAU [pwkr ssNG2 2FMN + 1F5.18] (Eterna round: R96, puzzle: Same State NG 2)”, the “apparent KD of MS2 coat protein” value in the data set with MS2 coat protein [3] (input ligand: FMN 200 uM) came to 54.8 nM; in the data set with MS2 coat protein [3] (setting [4]) it was 1.88 nM; in the data set on MS2 coat protein [3] (input ligand: none) it was 14 nM.
As to “UUUAGCGUUACAGGAUAUGGUGAGGAUUACCCACUAGAAGGGUAAACAUGUGCGUCGGACAUGAGGAUCACCCAUGUAGGGCGU (Eterna round: R96, puzzle: Same State NG 1)”, the “apparent KD of MS2 coat protein” value in the data set on MS2 coat protein [3] (input ligand: FMN 200 uM) was 28.4 nM; with MS2 coat protein [3] (setting [4]) it was 21.6 nM; in the data set with MS2 coat protein [3] (input ligand: none), 32.4 nM.
The matching figures for “UUUAGUUGCGGGCAGGAUAUGUGUUAAAAUACAUGAGGAUCACCCAUGUGCGGGUAUAACACCCGACAGAAGGGCCAAUCGCGAC [Laonerce - 2] (Eterna round: R96, puzzle: Same State 2)”: 13.5 nM, 44.2 nM and 54.9 nM.
Consider “UUUAGUUGCGGGCAGGAUAUGUGUUAAAAUACAUGAGGAUCACCCAUGUGCGGGUAUAACACCCGACAGAAGGGCCAAUCGCGAC [Laonerce - 2] (puzzle: Same State 2)”, for which the results for the “apparent KD of MS2 coat protein” value with MS2 coat protein [3] (setting [5]), with MS2 coat protein [3] (setting [6]) and with MS2 coat protein [3] (setting [7]) were 21.8 nM, 56.4 nM and 67.9 nM, respectively.
As for “UUUCCAUAGAUAGGAUAUCAGUUUACAUGAGGAUCACCCAUGUUCUCUUUGGUUUUAAUUUUUUCUGAGAAGGAUCUUGAUGAA [JR_SSNG2_Sub001] (Eterna round: R96, puzzle: Same State NG 2)”, the “apparent KD of MS2 coat protein” value with MS2 coat protein [3] (input ligand: FMN 200 uM) was 20.6 nM; in the data set on MS2 coat protein [3] (setting [4]) it was 17.7 nM; in the data set on MS2 coat protein [3] (input ligand: none), 25.1 nM.
As to “UUUGGGUGGCUGGAGGAUAUUCUUGUGGUUACAUGAGGAUCACCCAUGUGCCGCGCGGUGCGCGAGGAGAAGGCUGGCGGCCGUU (puzzle: Same State 2)”, the “apparent KD of MS2 coat protein” value in the data set on MS2 coat protein [3] (setting [5]) came to 21.7 nM; in the data set with MS2 coat protein [3] (setting [6]) it was 48.3 nM; in the data set with MS2 coat protein [3] (setting [7]) it was 65.7 nM.
In the case of “UUUUUGAUCCGAGGAUAUCCUUUUUUCUUACAUGAGGAUCACCCAUGUAAAGGGAUUGAGUUGUAGGAGAAGGCGGUUUUUGUU [JR_SSNG2_Sub059] (Eterna round: R96, puzzle: Same State NG 2)”, the “apparent KD of MS2 coat protein” value in the data set on MS2 coat protein [3] (input ligand: FMN 200 uM) amounted to 19.8 nM; in the data set with MS2 coat protein [3] (setting [4]) it was 28.3 nM; in the data set with MS2 coat protein [3] (input ligand: none), 35 nM.
As for “UUUUUUUUUUCGAGACAAGCUUUUUGAUCACAUGAGGAUCACCCAUGUCUCGUCUUAUUUUUUUUUUUUUUUUUUUU [BA Sensor hsa-mir-208a - 2 - 1] (puzzle: Sensor for hsa-mir-208a)”, the results for the “apparent KD of MS2 coat protein” value in the data set on MS2 coat protein [3] (setting [5]), with MS2 coat protein [3] (setting [6]) and in the data set on MS2 coat protein [3] (setting [7]) were 343 nM, 33.6 nM and 21.3 nM, respectively.
